Test system: K4 kissing-loop RNA reporter
Assay: apparent KD of K4 kissing-loop reporter; higher = weaker reporter binding
Conditions: Eterna round: R107
Description: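 RNA-MaP round R107: designed RNA switches with theophylline, tryptophan, arginine or FMN aptamers are transcribed on-chip within common flanks. They are titrated with a labelled K4 kissing-loop RNA reporter in RNA-MaP buffer (100 mM Tris pH 7.5, 80 mM KCl, 4 mM MgCl2), without ligand or with the indicated ligand. Median apparent KD per design.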

[1] = input ligand: theophylline 20 uM
[2] = input ligand: tryptophan 2.4 mM
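Note: bound reporter read as fluorescence of individual clusters on recovered sequencing chips by microscopy, with normalized cluster intensities fitted with a binding model.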

Row | Sequence | apparent KD of K4 kissing-loop reporter (input ligand: FMN 200 uM) | apparent KD of K4 kissing-loop reporter (input ligand: arginine 13.2 mM) | apparent KD of K4 kissing-loop reporter (input ligand: none) | apparent KD of K4 kissing-loop reporter [1] | apparent KD of K4 kissing-loop reporter [2]
1 | AGAAGGUCAAAGACCUUCGUGCACACUGAUACCAGUCGCGAAAGCGACCCUUGGCAGCAGGGCAGUGAUGUUGCCAAGUGCACAA [Omei KL Theo A SS A v2] | 252 nM | 278 nM | 267 nM | 136 nM | 235 nM
2 | AGACCACAAAGUGGUCAGUGUUCGCAGCAGCGAGGACCGGUACGGCCGCCACUCGCGAGUGAUGUUCGCGAGAGCUGCGAACACA [Omei KL Tryp A Exc A v7] | 101 nM | 83.2 nM | 81.3 nM | 83.3 nM | 109 nM
3 | AGACUACCACACUGUCAAUAGACAGUGAACUAGGAUAUGCUGAUAAGCAGAAGGAGUGAUGUUCCUAAUAAAAGGUAGUCAUAAU [FmnAX 16 #SwitchBubble #StaticStem #K4Early] | 426 nM | 431 nM | 415 nM | 587 nM | 360 nM
4 | AGACUACCACACUGUCAAUAGACAGUGAACUAGGAUAUGCUGAUAAGCAGAAGGAGUGAUGUUCCUAGGUAGUCAAUAAAAUAAU [FmnAX 13 #SwitchBubble #StaticStem #K4Early] | 349 nM | 350 nM | 383 nM | 447 nM | 401 nM
5 | AGACUACCACACUGUCAAUAGACAGUGAACUAGGAUAUGCUGAUAAGCAGAAGGAGUGAUGUUCCUGGGUAGUCAAUAAAAUAAU [FmnAX 13 G67] | 372 nM | 338 nM | 367 nM | 427 nM | 364 nM
6 | AGACUACCACACUGUCAAUAGACAGUGGACUAGGAUAUGCUGAUAAGCAGAAGGAGUGAUGUUCCGAGGUAGUCAAUAAAAUAAU [FmnAX 13 G28+G66] | 304 nM | 309 nM | 315 nM | 401 nM | 316 nM
7 | AGACUACCACACUGUCAAUAGACAGUGGACUAGGAUAUGCUGAUAAGCAGAAGGAGUGAUGUUCCUGGGUAGUCAAUAAAAUAAU [FmnAX 13 G28+G67] | 484 nM | 366 nM | 526 nM | 696 nM | 425 nM
8 | AGACUACCUACACUGUCAAUAGACAGUGACUAGGAUAUGCUGAUAAGCAGAAGGAGUGAUGUUCCAAAUAAAAGGUGGUAGUCAU [FmnAX 18 #SwitchBubble #StaticStem #K4Early] | 378 nM | 160 nM | 142 nM | 152 nM | 111 nM
9 | AGACUACUGAUAGGAUAUAACAUACUACUCGUAUACCAAAGGUAUACGAGAACCCUUCUAGUGAUGUUAGAAGGGUCGGUAGUCA [Omei KL FMN B Exc B v7] | 82.6 nM | 68 nM | 70.9 nM | 70.1 nM | 72.8 nM
10 | AGACUAUCGUCAAAGACGGUAGUCAAAAGUGAGGAUAUAAGUGAUGUUAGAAGGCACUAAGACUGUAUCGAAUAGAUACGGUCAA [FmnA 2 #K4BetweenAptamer #OpenEnded] | 1450 nM | 425 nM | 721 nM | 534 nM | 600 nM
11 | AGACUUCACCGAAGGAGCGACGUAGCCUAGUGAUGUUAGGCAAGAGAGAAAUCUCUUAAACGUCAGGUAGGUCGCGGUGAAGUCA [Omei KL Arginine B SS C v3] | 262 nM | 163 nM | 202 nM | 227 nM | 190 nM
12 | AGAGUCGGCUGUGAUACCAGUCGUAUAACAACAUGUCGCAGUGAUGUUGCGAGAUAGGAUGACCCUUGGCAGCACUCAGUACGAU [Same State Theophylline B GF 7] | 425 nM | 372 nM | 347 nM | 404 nM | 426 nM
13 | AGAGUUAUAUGAGGAUAUGAGAUAGUUAAUGAGUGAGUUAUAGUGUAGUUUGUUUAGUGAUGUUAUUUAGAAGGCGUGAGUGAUG [ljjlumullin] | 140 nM | 89.4 nM | 122 nM | 133 nM | 88.8 nM
14 | AGAUAGGGCUGAAGGAGCGUCGGAGAAGAAAAGAAGAAAUCCAGUGAUGUUGGAUAAAUCCGACAGGUAGGUCGCAGUUUUAUGA [hbob_SS_Arginine_B_2t136] | 109 nM | 116 nM | 127 nM | 140 nM | 119 nM
15 | AGAUGUCCCUGGGAUACCAGUCGGAGUCUCAGGGCUCGGAGUGAUGUUCUGGGAUGUUUCGGCCCUUGGCAGCCCUGGGACUCCC [#2 Exclusion - Theophylline B Attempt #26 (HarryS)] | 573 nM | 266 nM | 908 nM | 671 nM | 398 nM
16 | AGAUGUUCCUGGGAUACCAGUCGGAGUCUCAGAGCUCGGAGUGAUGUUCUGGGAUGUUUCGGCCCUUGGCAGCUCUGGGACUCCC [#2 Exclusion - Theophylline B Attempt #24 (HarryS)] | 1120 nM | 624 nM | 642 nM | 735 nM | 726 nM
17 | AGAUUCGGCACGGCCGCCACUUCCGGUGGCUGGUGUCAUGGUGCGCGUGAGUGAUGUUUAUGUGGGAGGACCGGGUGUUGAGUCU [whbob_Ex_Tryp_B_w43] | 974 nM | 411 nM | 898 nM | 592 nM | 603 nM
18 | AGCAGCAAAUCCUAGUGAUGUUAGGAUAUGUAGGAUAUCGGGAUACCGAGAAGGACAGAAGGAGGAGUGAUGUUCCUCAGCUGCA [FmnAX 23 #DoubleAptamer #DoubleK4 #SwitchBubble] | 116 nM | 106 nM | 104 nM | 102 nM | 94.9 nM
19 | AGCCAGGAACUUGCAACCUGGCUGCUGGAUACCAGCUCGGAAACGAGCCCUUGGCAGCCAGUACUUGCAGUGAUGUUGCAAGUUC [Design13] | 72.2 nM | 37.3 nM | 153 nM | 25.9 nM | 290 nM
20 | AGCCUAGGAGUCAUUUCCUGCCCGUACGAUACCAGCAUUACCAGUUGCCCUUGGCAGCGUUAUAAGGCCAGUGAUGUUGGCCACU [theeternabot_sameState_KL_Theo_A_22] | 168 nM | 175 nM | 185 nM | 197 nM | 167 nM
21 | AGCCUGAUAUAAGGAUAUCCGGACCGAGUAACUGAGUGAUGUUCAGGUGAAUAAUGUCUCACAUUGGGAGAAGGUAUUUCAGCGA [theeternabot_sameState_KL_FMN_B_21] | 232 nM | 182 nM | 251 nM | 276 nM | 225 nM

Row | Sequence | apparent KD of K4 kissing-loop reporter (input ligand: FMN 200 uM) | apparent KD of K4 kissing-loop reporter (input ligand: arginine 13.2 mM) | apparent KD of K4 kissing-loop reporter (input ligand: none) | apparent KD of K4 kissing-loop reporter [1] | apparent KD of K4 kissing-loop reporter [2]
22 | AGCUCAGAGUGACUUGAUAAGAGUCACAAACGAGGACCGGUACGGCCGCCACUCGAAAUAACGAGAGUGAUGUUCUCGCUGAGCA [FiskerMod 5 - Jieux - Same State Tryptophan A] | 696 nM | 564 nM | 980 nM | 843 nM | 328 nM
23 | AGGAGCGUGGGAUGCAAAUCGCACGCUCCUCGAGGACCGGUACGGCCGCCACUCGCUCGCGCCGAGUGAUGUUCGGCCGGCGAAC [#2 Same State - Tryptophan A Attempt #14 (HarryS)] | 221 nM | 232 nM | 247 nM | 266 nM | 407 nM
24 | AGGAUCCGUCGACAAAAGUCGACAUAAUCCAAGGAUAUGACGAAAGUCAGAAGGUGGGCAUAAGUCCAGUGAUGUUGGAGGAUCC [FmnA 18 #SwitchBubble #K4Late] | 575 nM | 360 nM | 587 nM | 523 nM | 445 nM
25 | AGGGUAAGGCGUUAACAUGACACCUGGGAAGGAGCGCAGUACACUGCAGGUAGGUCGCCCAGUGAUGUUGGGCGUAUGUAUUAGU [Legexeso] | 140 nM | 143 nM | 153 nM | 200 nM | 119 nM
26 | AGGGUAAGGCGUUAACAUGACACCUGGGAAGGAGCGCGGUACACCGCAGGUAGGUCGCCCAGUGAUGUUGGGUGAUUGUAUGAGU [KL-XArg-A24] | 149 nM | 123 nM | 136 nM | 150 nM | 131 nM
27 | AGGGUAAGGCGUUAACAUGACACCUGGGAAGGAGCGCGGUACACCGCAGGUAGGUCGCCCAGUGAUGUUGGGUGUAUGUAUGAGU [KL-XArg-A21] | 170 nM | 120 nM | 139 nM | 154 nM | 132 nM
28 | AGGUCACCAGGAAGGAGCGCCCUGACAGGUUGCUGCCGUGGGCAGUGAUGUUGCUCAGUCCGGCAGGUAGGUCGCCUGGUGACCU | 139 nM | 158 nM | 154 nM | 125 nM | 157 nM
29 | AGGUUUUGAUUAGGAUAUGCACUGAGGACGAGAAUAUAGUGAUGUUAUAUAAUAGGAAUUAGUAGAGUAGAAGGGAUUGAGGUUU [SSFMNB.V] | 244 nM | 153 nM | 183 nM | 194 nM | 161 nM
30 | AGGUUUUGAUUAGGAUAUGCACUGAGGAGGAGAAUAUAGUGAUGUUAUAUAAUAGGAAUUAGUAGAGUAGAAGGGAUUGAGGUUU [SSFMNB.U] | 206 nM | 223 nM | 172 nM | 248 nM | 142 nM
31 | AGGUUUUGAUUAGGAUAUGCAUUGACGAUGAGAAUAUAGUGAUGUUAUAUACUACGAAUUAGUAAAGUAGAAGGGAUUGAGGUUU [SSFMNB.aA] | 353 nM | 275 nM | 324 nM | 368 nM | 241 nM
32 | AGUACGCCCAGUGAUACCAGCCCGCCUGGGCAGUGAUGUUGCUCGGGAAAUAAAAUAGAGGGCCCUUGGCAGCACACGGUAGUCC [Cees] | 186 nM | 144 nM | 189 nM | 107 nM | 174 nM
33 | AGUAGUUGGGCGGCCGCCACUAGAACAGCUUUGCCAAAGGCAGAGCUCUAGAGUGAUGUUCUGGCUAGGACCGGGUCCAACUACA [#01 K4 Tryptophan B Same State] | 930 nM | 594 nM | 932 nM | 980 nM | 417 nM
34 | AGUCCACUCUAAAGAGUGGACCUAAGGGAUACCAGUGAUGUUGGUCACCCUUGGCAGCCCAGGGCCCGGCGAAUAGCCGGGCCCA [#10 K4 Theophylline A Exclusion] | 125 nM | 99.8 nM | 115 nM | 121 nM | 125 nM
35 | AGUCCACUCUAAAGAGUGGACCUAAGGGAUACCAGUGAUGUUGGUCACCCUUGGCAGCCCUCUGUCAUCGAUAAAGAUGGCAGCA | 132 nM | 114 nM | 136 nM | 149 nM | 145 nM
36 | AGUCGCAGUGAUGUUGCGAUUCCGUUGAGGGAGGAUAUUGGUAAUACAAGAAGGCCCGGCUGCGGGUGAUGUUCGCAAUAGGGCC [Exclusion FMN A GF19] | 138 nM | 108 nM | 117 nM | 112 nM | 105 nM
37 | AGUGAAGUUAGUGAUGUGUGAGUUUGGGAAGGAGCGCCGAGGAAGGCAGGUAGGUCGCCCAGUGAUGUUGGUGUAAAGAUGAGAG [whbob_Ex_Arginine_A_2t122] | 308 nM | 135 nM | 158 nM | 254 nM | 231 nM
38 | AGUGAUAUAUGAGGAUAUGGGAUAGUUAAUGAGUUAGUUUUAGUGUUGUUUGGUUAGUGAUGUUAUUUAGAAGGCGUGAGUGAUG [tptymullin] | 107 nM | 74.3 nM | 76.7 nM | 106 nM | 74.4 nM
39 | AGUGAUAUAUGAGGAUAUGGGUUUGUUAAUGAGUUAGUUUUAGUGUUGUUUGGUUAGUGAUGUUAUUUAGAAGGCGUGAGUGAUG [vkkjkjmullin] | 103 nM | 79.8 nM | 79.9 nM | 140 nM | 72.8 nM
40 | AGUGAUGUAUGGCGGUUGGUCACUUAGGAUCAGGAUAUAUAAACAAAUAGAAGGGAUGGCGGAGUGAUGUUCCGCCGGCCGCCAU [FMN A Exl V2] | 173 nM | 130 nM | 177 nM | 191 nM | 170 nM
41 | AGUGAUGUGGGAAGGAGCGCUACAAGACUUCAGUGAUGUUGAAGUGAUGUUUUAGUGUUGUAGCAGGUAGGUCGCCUAGAUGUUA [KL-XARG-B10] | 71.2 nM | 31.9 nM | 42.5 nM | 45.7 nM | 43.7 nM
42 | AGUGAUGUGGGAAGGAGCGCUACAUGACUUCAGUGAUGUUGAAGUGAUGAUUUAGUGAUGUAGCAGGUAGGUCGCCUAGAUGUUA [KL-XARG-B8] | 98.3 nM | 41.2 nM | 77.2 nM | 77.5 nM | 62.5 nM
